Source: paper PMC8168426 (ACS chemical biology, 2020)
Ends that are not written are not given here. * marks the point of attachment. NHCH2CH2(5-OH-indol-3-yl) = Oc1ccc2[nH]cc(CCN*)c2c1; fluorescein = fluorescein label (C-terminal); Me3 = trimethyl (trimethyl-lysine); Me2 = dimethyl (dimethyl-lysine)

T1: GST-PHD1 (S287–K347) of histone demethylase KDM5A (UniProt P29375 287-347)
T1 sequence (looked up): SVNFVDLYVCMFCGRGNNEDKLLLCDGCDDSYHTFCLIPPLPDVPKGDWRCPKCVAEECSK

T2: PHD1^287–347-KDAC8–6xHis fusion construct (UniProt P29375 287-347)
T2 sequence (looked up): T1 sequence (looked up)


Target: T1, GST-PHD1 (S287–K347) of histone …
Experiment: fluorescence polarisation
Settings: not given
ARTKATARKS (peptide, UniProt P68431 2-11, looked up) [H3 Q5A 10-mer peptide] gave a Ki of 0.75 µM.
With ARYKYTARKS (peptide, UniProt P68431 2-11, looked up) [H3 T3Y Q5Y 10-mer peptide] the Ki was over 100 µM.
In the case of ARFKQTARKS (peptide, UniProt P68431 2-11, looked up) [H3 T3F 10-mer peptide], the Ki is reported as over 100 µM.
ARDKQTARKS (peptide, UniProt P68431 2-11, looked up) [H3 T3D 10-mer peptide] gave a Ki of over 100 µM.
ARYKQTARKS (peptide, UniProt P68431 2-11, looked up) [H3 T3Y 10-mer peptide] gave a Ki of over 100 µM.
In the case of ARAKQTARKS (peptide, UniProt P68431 2-11, looked up) [H3 T3A 10-mer peptide], the Ki is reported as over 100 µM.

Target: T2, PHD1^287–347-KDAC8–6xHis fusion …
Experiment: PI-SAMDI
Settings: not given
ARTKETARKSGC [H3 Q5E 12-mer ligand]: binds.
ARTKQ(NHCH2CH2(5-OH-indol-3-yl))TARKSGC (not fully specified (C-terminus)) [Q5-serotonylated H3 12-mer ligand]: binds.
ARTK(Me2)QTARKSGC (not fully specified (C-terminus)) [H3K4me2 12-mer ligand]: binds.
ARTKQTARKSGC (not fully specified (C-terminus)) [unmodified H3 12-mer ligand (first 10 N-terminal residues of H3 and a GC moiety)]: binds.
ARTK(Me3)QTARKSGC (not fully specified (C-terminus)) [H3K4me3 12-mer ligand]: binds.
ARTKQTARKSGC (not fully specified; trimethyl-lysine at 9 (H3K9me3)) [H3K9me3 12-mer ligand]: binds.
ARTK(Me)QTARKSGC (not fully specified (C-terminus)) [H3K4me1 12-mer ligand]: binds.
ARTKYTARKSGC [H3 Q5Y 12-mer ligand]: binds.

System: PHD1 domain of KDM5A
Experiment: not given
Settings: result in words; cited from earlier work
For “N-terminally acetylated H3: N-terminally acetylated H3 12-mer peptide (Ac-ARTKQTARKSGC)”, the “Binding to PHD1 as previously established” value (“Binding to PHD1” for short) is listed as “not bind PHD1”.
For “H3 R2A: well-characterized H3 12-mer ligand with R2A mutation (AATKQTARKSGC)”, the “Binding to PHD1” value is listed as “strongly reduces binding”.
In the case of “H3K9me3: well-characterized H3 12-mer ligand bearing K9me3 (ARTKQTARKSGC; trimethyl-lysine at 9 (H3K9me3)) [Ligand H3K9me3]”, the “Binding to PHD1” value is given as “does not impact PHD1-H3 association”.

Target: T2, PHD1^287–347-KDAC8–6xHis fusion …
Experiment: PI-SAMDI
Settings: not given
Remark: another data set of the same source
ARVKRC [H3 T3V Q5R 6-mer ligand (ARXKZC with X = V, Z = R)]: binds.
ARTKRC [H3 Q5R 6-mer ligand (ARXKZC with X = T, Z = R)]: binds.
ARYKRC [H3 T3Y Q5R 6-mer ligand (ARXKZC with X = Y, Z = R)]: binds.
ARYKQC [H3 T3Y 6-mer ligand (ARXKZC with X = Y, Z = Q)]: binds.
ARTKSC [H3 Q5S 6-mer ligand (ARXKZC with X = T, Z = S)]: binds.
ARYKYC [H3 T3Y Q5Y 6-mer ligand (ARXKZC with X = Y, Z = Y)]: binds.
ARVKWC [H3 T3V Q5W 6-mer ligand (ARXKZC with X = V, Z = W)]: binds.

Target: T1, GST-PHD1 (S287–K347) of histone …
Experiment: fluorescence polarisation
Settings: not given
Remark: another data set of the same source
ARTKQ(NHCH2CH2(5-OH-indol-3-yl))TARKSGC (not fully specified (C-terminus)) [Q5-serotonylated H3 12-mer ligand]: binds.
ARTKQTARKSGC (not fully specified (C-terminus)) [unmodified H3 12-mer ligand (first 10 N-terminal residues of H3 and a GC moiety)]: binds.
ARTKQTARKS-fluorescein (peptide, UniProt P68431 2-11, looked up) [H3 peptide (1–10) carrying a C-terminal fluorescein label]: binds.
